From publication PMC8810855 come the findings set out here.

The assay addresses Arp2/3 complex (bovine brain) (bovine) (UniProt P61157). Put plainly: ITC; full-length Arpin in the syringe, ATP-bound Arp2/3 complex in the cell; 25 °C; Arp buffer (20 mM HEPES pH 7.5, 100 mM KCl, 1 mM MgCl2, 1 mM EGTA, 1 mM DTT) with 0.2 mM ATP; one-site isotherm. In general terms: Isothermal titration calorimetry measures the heat released or taken up as one component is titrated into another.

A word on the Kd: it is the free concentration of one partner at which half of the binding sites on the other are occupied at equilibrium, for simple one-to-one binding. Read a high Kd as weaker binding. By stoichiometry N is commonly meant the number of molecules, sites or subunits per partner or assembly. For “full-length human Arpin (from UniProt Q7Z6K5 1-226) (natural protein)”, the Kd turned out to be 1.24 µM and the stoichiometry N stood at 1.06.
